The text below walks through data of article PMC9095613.

In one experiment the target is Tva-HA-Fc (chicken).
Experiment: not given
Settings: not given
In the case of “A-gp85-flag wt (soluble gp85 of ALV-A RSA) (natural protein)”, the blocking of viral entry: % GFP-positive DF-1 cells (FACS) after incubation with the gp85 protein and infection with RCASBP (A)-EGFP; Tva on DF-1 cells (Figure 6C) (% GFP-positive cells) worked out at 0.21. Substance “E-gp85-flag wt (soluble gp85 of ALV-E ev-1) (natural protein)” returned a blocking of viral entry: % GFP-positive DF-1 cells (FACS) after incubation with the gp85 protein and infection with RCASBP (A)-EGFP; Tva on DF-1 cells (Figure 6C) (% GFP-positive cells) of 31.

The target in the next experiment is Tva-HA-Fc. Kind of experiment: co-IP. Particulars: parent: est. 1.0; read off a plot.
Turning to “A-gp85-flag wt (soluble gp85 of ALV-A RSA) -139S”, the ratio to parent was found to be 0.73. The same measure, in the same setting: with “A-gp85-flag wt (soluble gp85 of ALV-A RSA) -155PWVNPF” the figure was 0.07; with “A-gp85-flag wt (soluble gp85 of ALV-A RSA) -201NFD”, 0.8. As for “A-gp85-flag wt (soluble gp85 of ALV-A RSA) -266S”, the ratio to parent came out at 0.43.
